Earlier results on two substances are cited in PMC12192639.

In data set [1] the target is SSB C-terminal peptide last eight amino acids (Escherichia coli) (UniProt P0AGE0).
Another data set concerns the target RecO (Escherichia coli) (UniProt B1XB39).

UniProt P0AGE0, sequence (P0AGE0 whole entry, looked up): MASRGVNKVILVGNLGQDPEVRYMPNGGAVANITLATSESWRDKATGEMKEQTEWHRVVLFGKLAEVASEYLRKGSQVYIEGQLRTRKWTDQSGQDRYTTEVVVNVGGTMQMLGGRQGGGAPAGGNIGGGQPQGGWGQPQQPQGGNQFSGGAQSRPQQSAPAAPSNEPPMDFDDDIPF

The term Kd denotes the constant that tells how readily two partners part at equilibrium. Consider RecO (from UniProt B1XB39), for which, in data set [1], the equilibrium dissociation constant (Kd) is 150 nM.

On to RecR (from UniProt C4ZUS6), for which, in the data set with RecO (Escherichia coli), the Kd was 126 nM.
